Test results from the supplement of paper PMC9233669.
Fewer inactive variants are shown than the library holds.

Experiments:
[1] = tested on: biotinyl-Trp-oxazolone; test: self-aminoacylation, catalytic enhancement (BWO) (fold over background); higher = more active; k-Seq, kA / k0A0; sequences stand for … in GGGAAUGGAUCCACAUCUACGAAUUC…UUCACUGCAGACUUGACGAAGCUG
Outline: (§1)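 The uncatalyzed rate is the low-activity peak of a bimodal Gaussian fit, and catalytic enhancement is median kA divided by it. The kA values came from pseudo-first-order fits, with 1000 bootstraps, of per-sequence fraction reacted measured by streptavidin capture, triplicate qPCR and Illumina sequencing. Mutagenized RNA pools with a 21-nt variable region (0.43 μM) were reacted with each biotinyl-aminoacyl-oxazolone at 2–1250 μM in 50 μL HEPES/NaCl/KCl/MgCl2/CaCl2 buffer with 5% acetonitrile, pH 6.9–7.0, for 90 minutes at room temperature.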

[2] = tested on: biotinyl-Ile-oxazolone; test: self-aminoacylation, catalytic enhancement (BIO) (fold over background); higher = more active; k-Seq, kA / k0A0; sequences stand for … in GGGAAUGGAUCCACAUCUACGAAUUC…UUCACUGCAGACUUGACGAAGCUG
Outline: as §1

[3] = tested on: biotinyl-Val-oxazolone; test: self-aminoacylation, catalytic enhancement (BVO) (fold over background); higher = more active; k-Seq, kA / k0A0; sequences stand for … in GGGAAUGGAUCCACAUCUACGAAUUC…UUCACUGCAGACUUGACGAAGCUG
Outline: as §1

[4] = tested on: biotinyl-Leu-oxazolone; test: self-aminoacylation, catalytic enhancement (BLO) (fold over background); higher = more active; k-Seq, kA / k0A0; sequences stand for … in GGGAAUGGAUCCACAUCUACGAAUUC…UUCACUGCAGACUUGACGAAGCUG
Outline: as §1

[5] = tested on: biotinyl-Met-oxazolone; test: self-aminoacylation, catalytic enhancement (BMO) (fold over background); higher = more active; k-Seq, kA / k0A0; sequences stand for … in GGGAAUGGAUCCACAUCUACGAAUUC…UUCACUGCAGACUUGACGAAGCUG
Outline: as §1

[6] = tested on: biotinyl-Phe-oxazolone; test: self-aminoacylation, catalytic enhancement (BFO) (fold over background); higher = more active; k-Seq, kA / k0A0; sequences stand for … in GGGAAUGGAUCCACAUCUACGAAUUC…UUCACUGCAGACUUGACGAAGCUG
Outline: as §1

AAUGCCCUGGUCAUCGAGUGA [Fam2.1 aminoacylation ribozyme variant]
self-aminoacylation [1]: 11.8
self-aminoacylation [2]: 4.61
self-aminoacylation [3]: 5.85
self-aminoacylation [4]: 9.96
self-aminoacylation [5]: 9.57
self-aminoacylation [6]: 33.9

AUUCACCUAAGUCAUCGAGUG [Fam2.2 aminoacylation ribozyme variant]
self-aminoacylation [1]: 5.16
self-aminoacylation [2]: 3.92
self-aminoacylation [3]: 3.78
self-aminoacylation [4]: 7.69
self-aminoacylation [5]: 5.75
self-aminoacylation [6]: 22.9

AUUACACUGGUCAUCGCGUGA [Fam2.1 aminoacylation ribozyme variant]
self-aminoacylation [1]: 14.6
self-aminoacylation [2]: 6.84
self-aminoacylation [3]: 7.07
self-aminoacylation [4]: 14.4
self-aminoacylation [5]: 12.6
self-aminoacylation [6]: 102

AAGUUUGCUAAUAGGGGCAAG [Fam3.1 aminoacylation ribozyme variant]
self-aminoacylation [1]: 0.665
self-aminoacylation [2]: 0.686
self-aminoacylation [3]: 0.649
self-aminoacylation [4]: 0.505
self-aminoacylation [5]: 0.663
self-aminoacylation [6]: 1.08

AAGUUGGCUAAGAGUCGCAAG [Fam3.1 aminoacylation ribozyme variant]
self-aminoacylation [1]: 2.13
self-aminoacylation [2]: 2.02
self-aminoacylation [3]: 1.53
self-aminoacylation [4]: 1.98
self-aminoacylation [5]: 1.68
self-aminoacylation [6]: 1.91

CGACUUCUAACAAUCGGUCUG [Fam1A.1 aminoacylation ribozyme variant]
self-aminoacylation [1]: 0.591
self-aminoacylation [2]: 0.905
self-aminoacylation [3]: 0.931
self-aminoacylation [4]: 0.917
self-aminoacylation [5]: 0.936
self-aminoacylation [6]: 0.961

AUUACUCUGGACAUCGAGUGA [Fam2.1 aminoacylation ribozyme variant]
self-aminoacylation [1]: 8.33
self-aminoacylation [2]: 2.93
self-aminoacylation [3]: 2.83
self-aminoacylation [4]: 6.1
self-aminoacylation [5]: 5.55
self-aminoacylation [6]: 30.9

CCACACUGCAAGCAAUCAGUC [Fam1B.1 aminoacylation ribozyme variant]
self-aminoacylation [1]: 0.551
self-aminoacylation [2]: 0.79
self-aminoacylation [3]: 0.741
self-aminoacylation [4]: 0.852
self-aminoacylation [5]: 0.584
self-aminoacylation [6]: 1.1

AUUCAUCUAGGUCGUCGGGUG [Fam2.2 aminoacylation ribozyme variant]
self-aminoacylation [1]: 1.68
self-aminoacylation [2]: 1.93
self-aminoacylation [3]: 1.86
self-aminoacylation [4]: 2.27
self-aminoacylation [5]: 2.1
self-aminoacylation [6]: 4.73

AUUCACCUAGGUCAACGCGUG [Fam2.2 aminoacylation ribozyme variant]
self-aminoacylation [1]: 5.44
self-aminoacylation [2]: 3.59
self-aminoacylation [3]: 3.6
self-aminoacylation [4]: 7.6
self-aminoacylation [5]: 5.53
self-aminoacylation [6]: 43.4

AUCACCCUGCUCAUCGAGUGA [Fam2.1 aminoacylation ribozyme variant]
self-aminoacylation [1]: 3.44
self-aminoacylation [2]: 1.57
self-aminoacylation [3]: 1.9
self-aminoacylation [4]: 2.67
self-aminoacylation [5]: 2.48
self-aminoacylation [6]: 19.1
